Assays:
[1] = tested on: N[C@@H](CCSC[C@H](N)C(=O)O)C(=O)O; experiment: steady-state kinetics, Km; type: biochemical, Corynebacterium diphtheriae; conditions: PLP; pH 9.0; 30.0 °C
[2] = target: pyridoxal-5′-phosphate (PLP-) dependent C-S lyase from Corynebacterium diphtheriae (Corynebacterium diphtheriae); experiment: SEC; analytical Superdex 200 HR 10/30, 20 mM sodium phosphate pH 7.2, 150 mM NaCl, 0.1 mL/min; calibrated with mass standards 12.4-669 kDa; apparent mass 85 kDa against about 44 kDa for the subunit
[3] = tested on: N[C@@H](CCSC[C@H](N)C(=O)O)C(=O)O; experiment: purified protein; conditions: PLP; pH 9.0; 30.0 °C
[4] = tested on: N[C@@H](CS)C(=O)O; experiment: purified protein; conditions: PLP
[5] = target: T1, C-S lyase (Corynebacterium diphtheriae, UniProt Q6NFZ9); experiment: fluorescence titration of apoenzyme (emission at […] nm); type: binding
T1 construct: gene aecD; recombinant His-tagged apoenzyme

Molecule: C-S lyase (Corynebacterium diphtheriae NCTC 13129; Y114F)
- Km [1]: 200 ± 10 µM
- kcat [1]: 1.2 ± 0.02 s⁻¹

Molecule: pyridoxal-5′-phosphate (PLP-) dependent C-S lyase from Corynebacterium diphtheriae (enzyme)
- stoichiometry N [2]: 2

Molecule: C-S lyase (Corynebacterium diphtheriae NCTC 13129)
- Km [3]: 1070 ± 220 µM
- kcat [3]: 92.7 ± 4.44 s⁻¹
- Km [4]: 950 ± 180 µM

Molecule: Cc1ncc(COP(=O)(O)O)c(C=O)c1O [PLP, pyridoxal-5′-phosphate]
- Kd [5]: 90 ± 30 nM

From article PMC3784150, “Characterization of C-S Lyase from C. diphtheriae: A Possible Target for New Antimicrobial Drugs” (BioMed Research International, 2013)
